Several values for one entry are separate records, joined by “and”; a condition that tells them apart may be missing. Equal entries are not always repeated.
Key:
[1] = molecular target: T1, mouse MUC18 protein of normal (nude) mouse endothelial cells (mouse, UniProt Q8R2Y2 24-648); experiment: immunoblot of nude mouse endothelial cell lysate (40 ug protein, 10% SDS-PAGE), anti-human IgG secondary, ECL
T1 construct: whole, on cells; Tested as cell lysate on SDS-PAGE immunoblot, not on intact cells; also called NME; NME2 cells
T1 sequence (looked up): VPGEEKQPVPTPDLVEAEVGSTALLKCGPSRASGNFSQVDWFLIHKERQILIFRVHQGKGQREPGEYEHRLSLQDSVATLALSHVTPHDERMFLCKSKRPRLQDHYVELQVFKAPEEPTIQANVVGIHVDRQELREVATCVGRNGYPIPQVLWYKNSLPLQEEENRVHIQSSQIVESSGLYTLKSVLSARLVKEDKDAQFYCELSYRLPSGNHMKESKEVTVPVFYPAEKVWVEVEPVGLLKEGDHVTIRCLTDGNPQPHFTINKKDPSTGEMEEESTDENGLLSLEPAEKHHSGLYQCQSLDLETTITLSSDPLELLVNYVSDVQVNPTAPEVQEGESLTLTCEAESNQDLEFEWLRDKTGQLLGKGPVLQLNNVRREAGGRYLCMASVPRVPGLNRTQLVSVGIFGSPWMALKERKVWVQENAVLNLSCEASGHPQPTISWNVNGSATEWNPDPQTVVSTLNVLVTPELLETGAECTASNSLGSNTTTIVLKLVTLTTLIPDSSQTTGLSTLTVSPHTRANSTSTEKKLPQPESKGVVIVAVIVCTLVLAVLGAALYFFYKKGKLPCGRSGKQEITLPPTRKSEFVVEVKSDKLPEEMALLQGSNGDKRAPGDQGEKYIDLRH
Experimental: (§1) After overnight incubation, the plates were washed two times in PBS, and scraped in 400 μl Triton lysis buffer containing a cocktail of protease inhibitors plus DTT. Following centrifugation, the protein concentration was determined using a kit from BioRad. 40 μg of protein was loaded onto a 10% SDS-PAGE and electrophoretically transferred to a 0.45 -micron nitrocellulose membrane (Millipore). The membrane was incubated in buffer containing anti-MUC18 antibody overnight, reacted with a conjugated secondary antibody (Anti-human IgG) for one hour and the proteins were subsequently detected by the ECL (Amersham Corp) method according to the manufactures protocol.

[2] = molecular target: T2, MUC18-V5-His antigen (extracellular domain aa 1-559 of human MUC18 fused to V5-HIS) (human, UniProt P43121 24-559); experiment: SPR (Biacore 3000), mAb captured on protein A, MUC18-V5-His in flow, 1:1 model; May 2001, chip I; exponent printed without its minus sign
[3] = molecular target: T2, MUC18-V5-His antigen (extracellular …); experiment: SPR (Biacore 3000), mAb captured on protein A, MUC18-V5-His in flow, 1:1 model; October 2001, chip II
[4] = molecular target: T3, human MUC18 expressed by human melanoma cells (A375-SM, TXM-13, WM-2664) (human, UniProt P43121 24-646); experiment: immunoblot of melanoma cell lysates (40 ug protein, 10% SDS-PAGE, denatured MUC18), anti-human IgG secondary, ECL
T3 construct: whole, on cells; also called MCAM; Mel-CAM
Experimental: as §1

[5] = molecular target: T2, MUC18-V5-His antigen (extracellular …); experiment: SPR (Biacore 3000), average of the seven measurements
[6] = molecular target: T2, MUC18-V5-His antigen (extracellular …); experiment: SPR (Biacore 3000), mAb captured on protein A, MUC18-V5-His in flow, 1:1 model; May 2001, chip I
[7] = molecular target: T2, MUC18-V5-His antigen (extracellular …); experiment: SPR (Biacore 3000), mAb captured on protein A, MUC18-V5-His in flow, 1:1 model; November 2001, chip III; exponent printed without its minus sign
[8] = molecular target: T2, MUC18-V5-His antigen (extracellular …); experiment: SPR (Biacore 3000), mAb captured on protein A, MUC18-V5-His in flow, 1:1 model; November 2001, chip III
[9] = molecular target: T2, MUC18-V5-His antigen (extracellular …); experiment: SPR (Biacore 3000), mAb captured on protein A, MUC18-V5-His in flow, 1:1 model; October 2001, chip II; exponent printed without its minus sign

binding result [1]: no binding
koff [2]: 0.000302 s⁻¹
Kd [3]: 0.57 nM and 0.69 nM
kon [3]: 709000 M⁻¹ s⁻¹ and 575000 M⁻¹ s⁻¹
binding result [4]: binds
Kd [5]: 0.61 nM
koff [5]: 0.000375 s⁻¹
kon [5]: 627000 M⁻¹ s⁻¹
Kd [6]: 0.67 nM
kon [6]: 453000 M⁻¹ s⁻¹
koff [7]: 0.000347 s⁻¹ and 0.000385 s⁻¹ and 0.000402 s⁻¹ and 0.000389 s⁻¹
Kd [8]: 0.46 nM and 0.62 nM and 0.65 nM and 0.59 nM
kon [8]: 749000 M⁻¹ s⁻¹ and 625000 M⁻¹ s⁻¹ and 615000 M⁻¹ s⁻¹ and 661000 M⁻¹ s⁻¹
koff [9]: 0.000402 s⁻¹ and 0.000396 s⁻¹
B1: anti-MUC18 antibody c3.19.1 (antibody, human IgG2, V domains shown)
VH: QVQLQESGPGLVKPSETLSLTCTVSGGSISSYYWSWIRQPPGKGLEWIGYIYYTWTSNYNPSLKSRVTISVDTSKNQFSLRLSSVTAADTAVYYCARDQGQWLLPDAFDIWGQGTMVTVSS
VL: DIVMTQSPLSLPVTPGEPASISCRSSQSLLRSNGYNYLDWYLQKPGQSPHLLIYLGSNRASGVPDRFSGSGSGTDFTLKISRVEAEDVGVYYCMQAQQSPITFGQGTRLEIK
notes: also called ABX-MA1; MAb 3.19.1
